# From publication PMC10232555
# Target: Vim93-302-Eb1 (vimentin residues 93 to 302 followed by the Eb1 capping motif) (UniProt P08670)
# Assay: SEC-MALS; data not shown; HS conditions
substance,measurement,value
Vim93-302-Eb1 (vimentin residues 93 to 302 followed by the Eb1 capping motif) (from UniProt P08670 93-302) (domain or fragment),stoichiometry N,4
